Article PMC8610301 (Current Research in Microbial Sciences, 2021)
Read-outs that look alike come from different tables or passages of the source.

B1: recombinant Cas2 of Leptospira interrogans (LinCas2) (enzyme, UniProt Q8F1F4 1-94, looked up)
chain: MKHWRLVSYDIREPKRLRRVAKIMEGFGERIQYSVFRIYSTDKELEKLRWKLAKVTEEEDNIFYLTLCTKCASGAHTQEKKSAWPEAPKTLKIL
B2: native LinCas2 in the lysate of L. interrogans serovar Copenhageni (natural protein, UniProt Q8F1F4 1-94, looked up)
chain: B1 chain

Tests used:
[1] = biological target: the molecule itself; assay: immunoblot after SDS-PAGE
[2] = biological target: the molecule itself; assay: immunoblot after SDS-PAGE; remark: listed apart in the source

Protein | stoichiometry N [1] | stoichiometry N [2]
B1 | 2 | –
B2 | – | 2
